What was measured:
[1] = target: T1, Myc-tagged S fragment of MERS-CoV (MERS-CoV, isolate of GenBank KT357812.1, UniProt A0A024E0Q9); assay: Western blot; conditions: one partner purified
T1 construct: source: 293FT cells, transiently transfected, in lysate (RIPA buffer)

[2] = target: Myc-tagged S fragment of human coronavirus (HCoV)-OC43 (HCoV-OC43 (GenBank L14643.1), UniProt P36334); assay: Western blot; conditions: one partner purified
[3] = target: Myc-tagged S fragment of mouse hepatitis virus (MHV) (Mouse hepatitis virus, ATCC VR-764 …, UniProt P11224); assay: Western blot; conditions: one partner purified
[4] = target: Myc-tagged S fragment of bat coronavirus (BtCoV)-HKU5 (BtCoV-HKU5 (GenBank AGP04943.1), UniProt S4X425); assay: Western blot; conditions: one partner purified
[5] = target: T2, synthetic peptide of stem helix (1141-1161) of SARS-CoV-2 WT S with biotin at C terminus (SARS-CoV-2, UniProt P0DTC2); assay: BLI; […] (Gator Bio); antibody at 1 to 100 nM in 100 mM HEPES, 500 mM NaCl, 0.005% Tween20, 0.1% BSA; […]; conditions: both partners purified
T2 construct: source: synthetic peptide

Chain of Myc-tagged S fragment of human coronavirus (HCoV)-OC43 (P36334 whole entry, looked up, the tested form may be a part, one chain of several): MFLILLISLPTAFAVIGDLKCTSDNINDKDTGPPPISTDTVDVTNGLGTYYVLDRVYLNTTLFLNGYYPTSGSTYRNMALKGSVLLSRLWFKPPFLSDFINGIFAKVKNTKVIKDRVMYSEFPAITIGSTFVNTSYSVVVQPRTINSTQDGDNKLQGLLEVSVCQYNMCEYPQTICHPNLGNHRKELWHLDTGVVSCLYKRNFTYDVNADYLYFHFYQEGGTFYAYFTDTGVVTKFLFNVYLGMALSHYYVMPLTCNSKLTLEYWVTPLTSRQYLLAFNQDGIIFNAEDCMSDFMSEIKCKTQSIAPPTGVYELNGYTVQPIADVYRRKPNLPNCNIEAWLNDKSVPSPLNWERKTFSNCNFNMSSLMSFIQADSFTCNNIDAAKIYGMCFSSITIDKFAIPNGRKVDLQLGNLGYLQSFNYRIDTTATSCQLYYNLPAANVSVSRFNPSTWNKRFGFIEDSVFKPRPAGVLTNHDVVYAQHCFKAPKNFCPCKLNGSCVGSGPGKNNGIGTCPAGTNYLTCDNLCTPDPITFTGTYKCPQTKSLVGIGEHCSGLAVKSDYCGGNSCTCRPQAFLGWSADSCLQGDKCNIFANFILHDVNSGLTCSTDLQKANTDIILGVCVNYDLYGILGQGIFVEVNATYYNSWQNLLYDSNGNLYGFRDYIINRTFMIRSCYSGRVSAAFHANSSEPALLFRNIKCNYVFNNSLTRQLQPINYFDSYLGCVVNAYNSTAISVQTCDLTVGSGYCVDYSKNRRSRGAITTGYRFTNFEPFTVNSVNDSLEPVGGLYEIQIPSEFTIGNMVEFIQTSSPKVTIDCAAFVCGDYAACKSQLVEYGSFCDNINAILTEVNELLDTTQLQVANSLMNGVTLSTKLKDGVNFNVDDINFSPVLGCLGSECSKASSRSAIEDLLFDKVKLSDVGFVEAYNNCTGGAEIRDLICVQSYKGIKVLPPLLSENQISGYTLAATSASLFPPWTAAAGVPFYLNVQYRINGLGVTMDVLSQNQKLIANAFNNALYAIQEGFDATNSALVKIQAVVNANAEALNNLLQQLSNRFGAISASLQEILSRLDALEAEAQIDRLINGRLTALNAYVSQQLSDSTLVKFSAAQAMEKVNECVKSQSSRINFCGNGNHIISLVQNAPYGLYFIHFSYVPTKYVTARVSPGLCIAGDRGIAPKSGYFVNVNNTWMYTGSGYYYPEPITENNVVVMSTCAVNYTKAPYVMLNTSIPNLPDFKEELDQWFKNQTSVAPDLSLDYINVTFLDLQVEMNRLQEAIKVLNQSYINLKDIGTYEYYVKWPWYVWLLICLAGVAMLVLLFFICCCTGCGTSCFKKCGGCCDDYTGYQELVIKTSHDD
Chain of Myc-tagged S fragment of mouse hepatitis virus (MHV) (P11224 whole entry, looked up, the tested form may be a part): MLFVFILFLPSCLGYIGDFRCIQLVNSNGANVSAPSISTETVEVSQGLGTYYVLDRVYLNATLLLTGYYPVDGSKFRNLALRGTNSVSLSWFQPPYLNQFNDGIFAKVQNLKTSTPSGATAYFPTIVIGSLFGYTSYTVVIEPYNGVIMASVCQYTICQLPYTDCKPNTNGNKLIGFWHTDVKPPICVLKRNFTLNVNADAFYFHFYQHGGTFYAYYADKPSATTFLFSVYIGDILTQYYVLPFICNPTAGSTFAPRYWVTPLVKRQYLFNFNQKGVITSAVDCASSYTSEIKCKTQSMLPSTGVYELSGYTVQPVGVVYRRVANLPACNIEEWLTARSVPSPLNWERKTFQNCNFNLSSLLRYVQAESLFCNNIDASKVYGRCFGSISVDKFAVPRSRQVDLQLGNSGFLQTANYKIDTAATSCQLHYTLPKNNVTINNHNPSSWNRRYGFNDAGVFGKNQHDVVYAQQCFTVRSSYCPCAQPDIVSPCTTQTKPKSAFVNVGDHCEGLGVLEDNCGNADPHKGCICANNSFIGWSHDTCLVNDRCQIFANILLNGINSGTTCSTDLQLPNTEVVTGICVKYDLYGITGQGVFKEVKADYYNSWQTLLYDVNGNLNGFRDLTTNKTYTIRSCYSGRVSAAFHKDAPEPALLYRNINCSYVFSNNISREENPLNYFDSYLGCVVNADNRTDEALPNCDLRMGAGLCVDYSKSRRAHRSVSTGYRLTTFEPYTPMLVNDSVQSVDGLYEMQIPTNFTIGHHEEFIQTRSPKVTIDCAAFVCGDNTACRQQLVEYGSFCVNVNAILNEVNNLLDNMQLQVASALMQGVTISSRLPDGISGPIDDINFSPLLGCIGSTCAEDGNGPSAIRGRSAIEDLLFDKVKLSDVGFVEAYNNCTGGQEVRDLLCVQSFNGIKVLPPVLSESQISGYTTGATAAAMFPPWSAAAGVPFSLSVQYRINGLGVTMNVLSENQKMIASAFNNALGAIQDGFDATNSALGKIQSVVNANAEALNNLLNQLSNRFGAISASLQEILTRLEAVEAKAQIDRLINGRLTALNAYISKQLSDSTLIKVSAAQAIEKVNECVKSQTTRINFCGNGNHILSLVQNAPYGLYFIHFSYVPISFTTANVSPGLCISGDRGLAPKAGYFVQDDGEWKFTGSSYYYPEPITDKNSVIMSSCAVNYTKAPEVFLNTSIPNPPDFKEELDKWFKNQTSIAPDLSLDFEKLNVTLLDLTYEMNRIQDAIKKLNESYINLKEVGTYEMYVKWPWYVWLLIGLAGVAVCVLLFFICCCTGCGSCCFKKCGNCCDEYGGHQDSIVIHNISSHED

B1: S2P6 recombinant mAb with human IgG1 constant region (antibody, V domains shown)
VH: EVQLVQSGAEVKKPGASVKVSCKASGYTFTSQYMHWVRQAPGQGLEWIGIINPSGVHTSYAQKFQGRVTLTRDTSTSTLYMELSSLRSEDTAVYYCARGSPKGAFDYWGQGTLVTVSS
VL: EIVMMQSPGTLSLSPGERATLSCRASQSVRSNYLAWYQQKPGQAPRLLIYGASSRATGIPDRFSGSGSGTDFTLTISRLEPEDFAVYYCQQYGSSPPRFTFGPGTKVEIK
notes: also called mAb S2P6
- binding result [1]: binds
- binding result [2]: binds
- binding result [3]: binds
- binding result [4]: binds
- Kd [5]: < 1 pM
